Measured values as given in paper PMC2952221.

Target: 40 S ribosomal subunit, wild type (RDN+) (S. cerevisiae (endogenous in NOY908)) (UniProt P32905)
Experiment: co-sedimentation

Chain of UniProt P32905 (P32905 whole entry, looked up, tested part not stated): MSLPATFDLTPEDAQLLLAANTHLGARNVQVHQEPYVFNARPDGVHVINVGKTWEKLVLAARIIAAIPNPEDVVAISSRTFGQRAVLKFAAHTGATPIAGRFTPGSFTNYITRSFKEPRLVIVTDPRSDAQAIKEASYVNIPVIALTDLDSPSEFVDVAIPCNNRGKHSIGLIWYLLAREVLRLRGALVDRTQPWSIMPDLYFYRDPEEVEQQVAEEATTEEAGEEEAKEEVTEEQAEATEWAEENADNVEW

Substance | percent of the factor loaded on free 40 S subunits [%]
eIF2 (heterotrimeric factor) (from UniProt P20459 1-304; P09064 1-285; P32481 1-527) (complex) | < 5
eIF5 (from UniProt P38431 1-405) (natural protein) | < 5
eIF3 (from UniProt P38249 1-964; Q04067 1-274) (complex) | < 5
